Assay: in vitro cholesterol transfer between heavy and light liposomes
Assay type: biochemical
Settings: purified recombinant ASTER domain, 15 min under agitation
Procedure: Values are means±SEM. […] Input (Ctrl) served as a control for LXR enrichment. […] Values are means±SEM. […] Results values are means±SD. […] Results values are means±SD. […] Values are means±SEM.
Liposomes were generated by drying lipids in glass tube under liquid nitrogen. Lipid films were then resuspended in 50 mM hepes, 120 mM potassium acetate buffer ±0.75M sucrose where indicated. Lipid suspensions were then vortexed and incubated for 30 minutes at 37° C. (2 mM total lipid concentration). Suspensions were then snap frozen in liquid nitrogen and thawed rapidly at 37° C. five times. Light liposomes were prepared by extruding through 100 nm polycarbonate filters. Heavy liposomes containing sucrose were prepared by extruding through a 400 nm polycarbonate filter, then washing several times in 50 mM hepes, 120 mM potassium acetate buffer with no sucrose. Liposome sizes were confirmed using an N4 Dynamic Light Scattering instrument.
To test the ability of the ASTER domain to transfer cholesterol between membranes, an in vitro assay was optimized with heavy and light liposomes. Purified recombinant ASTER domain was incubated with “heavy” PC/dansyl-PE liposomes and “light” PC/cholesterol/dansyl-PE liposomes under agitation for 15 min. The liposomes were separated by centrifugation, and cholesterol levels were determined. Dansyl-PE intensities of heavy liposomes were used to normalize the cholesterol values.

Molecule	cholesterol transfer to the heavy liposomes
Aster-C: purified recombinant ASTER domain of mouse Aster-C (protein, UniProt Q8CI52 206-528, looked up, fragment, ASTER domain) MEHLLSVEENVQPRSPGRSSVDDAGERDEKFSKAVSFTQESVSRASETEPLDGNSPKRGLGKEDSQSERNVRKSPSLASEKRISRAPSKSLDLNKNEYLSLDKSSTSDSVDEENIPEKDLQGRLYINRVFHISAERMFELLFTSSHFMQRFANSRNIIDVVSTPWTVESGGNQLRTMTYTIVLSNPLTGKYTAATEKQTLYKESREAQFYLVDSEVLTHDVPYHDYFYTLNRYCIVRSAKQRCRLRVSTDLKYRKQPWGLIKSLIEKNSWSSLESYFKKLESDLLMEESVLSQSIEDAGKHSSLRRRRRTLNRTAEPVPKLSS	efficiently facilitated cholesterol transfer
Aster-A: purified recombinant ASTER domain of mouse Aster-A (protein, UniProt Q8VEF1 261-576, looked up, fragment, ASTER domain) AADHSQEPSPVGSRRGRVTPNLSRASSDADHGAEEDKEEQTDGLDASSSQTVTPVAEPLSSEPTPPDGPTSSLGPLDLLSREELLTDTSNSSSSTGEEGDLAALLPDLSGRLLINSVFHMGAERLQQMLFSDSPFLQGFLQQRKFTDVTLSPWSSDSKCHQRRVLTYTIPISNQLGPKSASVVETQTLFRRGPQAGGCVVDSEVLTQGIPYQDYFYTAHRYCILGLARNKARLRVSSEIRYRKQPWSLVKSLIEKNSWSGIEDYFHHLDRELAKAEKLSLEEGGKDTRGLLSGLRRRKRPLSWRGHRDGPQHPDPD	efficiently facilitated cholesterol transfer
Aster-B: purified recombinant ASTER domain of mouse Aster-B (protein, UniProt Q80TI0 224-560, looked up, fragment, ASTER domain) NELGLTSDDEDYVPPDDDFNTMGYCEEIPIEENEVNDSSSKSSIETKPDASPQLPKKSITNSTLTSTGSSEAPVSFDGLPLEEEVMEGDGSLEKELAIDNIIGEKIEIMAPVTSPSLDFNDNEDIPTELSDSSDTHDEGEVQAFYEDLSGRQYVNEVFNFSVDKLYDLLFTNSPFLRDFMEQRRFSDIIFHPWKKEENGNQSRVILYTITLTNPLAPKTATVRETQTMYKASQESECYVIDAEVLTHDVPYHDYFYTINRYTLTRVARNKSRLRVSTELRYRKQPWGFVKTFIEKNFWSGLEDYFRHLETELTKTESTYLAEIHRQSPKEKASKSSA	efficiently facilitated cholesterol transfer
